Test results published in US20180155451A1 (published 2018).

T1: FcγRIIa R (FcγRIIa, allotype R, Arg at position 131), extracellular domain with C-terminal His tag (human, UniProt P12318 34-217)
T1 construct: extracellular domain; soluble receptor used as Biacore analyte; also called 2aR; FcgRIIa R
T1 sequence (looked up): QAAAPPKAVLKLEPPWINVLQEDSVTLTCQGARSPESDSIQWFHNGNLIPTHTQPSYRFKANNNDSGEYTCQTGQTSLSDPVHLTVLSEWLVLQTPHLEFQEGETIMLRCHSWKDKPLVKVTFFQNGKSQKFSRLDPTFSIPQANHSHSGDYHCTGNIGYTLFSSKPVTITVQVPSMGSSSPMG

T2: FcγRIIb, extracellular domain with C-terminal His tag (human, UniProt P31994 43-217)
T2 construct: extracellular domain; soluble receptor used as Biacore analyte; also called 2b; FcgRIIb
T2 sequence (looked up): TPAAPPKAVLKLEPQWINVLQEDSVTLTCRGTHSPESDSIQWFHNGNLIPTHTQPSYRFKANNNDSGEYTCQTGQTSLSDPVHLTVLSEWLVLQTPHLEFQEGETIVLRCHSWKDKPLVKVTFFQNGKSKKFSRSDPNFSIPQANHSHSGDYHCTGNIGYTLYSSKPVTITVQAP


What was measured:
[1] = target: T1, FcγRIIa R (FcγRIIa, allotype R, Arg at …); test: Biacore SPR; He/Con_2aR divided by He/Con_2b (FcγRIIb)
Procedure: The heterodimerized antibodies He Abs in which one of the H chains was introduced with an alteration were assayed for their binding activities to each activating FcγR and inhibitory FcγR according to the method described in Example 4. […] The activating FcγRs in FIGS. 26, 27, 28, and 29 are FcγRIa, FcγRIIa (R), FcγRIIa (H), and FcγRIIIa, respectively.
Analysis of interaction between objective antibody and the FcγR was carried out using Biacore T100 (GE Healthcare). HBS-EP+ (GE Healthcare) was used as the running buffer, and the measurement temperature was set to 25° C. Chips produced by immobilizing the antigen peptide by the amine coupling method to a Series S Sencor Chip CM5 (GE Healthcare), or alternatively, chips produced by allowing preliminarily biotinylated antigen peptides to interact with and immobilize onto a Series S Sensor Chip SA (certified) (GE Healthcare) were used. Antibodies of interest were captured onto an antigen peptide-immobilized chip, and allowed to interact to each FcγR diluted with running buffer. To regenerate and repeatedly use the chip, the antibodies captured on the chip were washed off by reacting 10 mM glycine-HCl, pH 1.5.

[2] = target: T1, FcγRIIa R (FcγRIIa, allotype R, Arg at …); test: Biacore SPR; binding relative to GpH7-A5/GpH7-B3/GpL16-k0 (=100)
[3] = target: T2, FcγRIIb, extracellular domain with …; test: as above

| Binder | IIaR/IIb (He_2aR/2b) [1] | He/Con_2aR (IIaR binding) [2] | He/Con_2b (IIb binding) [3] |
| --- | --- | --- | --- |
| heterodimerized antibody GpH7-A5/GpH7-B3 variant P238_08L/GpL16-k0 (antibody, human IgG1, kappa, He Ab: anti-glypican-3 IgG1, alteration in one H chain only; also called He Ab) heavy 1: not shown heavy 2: not shown light: DIVMTQSPLSLPVTPGEPASISCQASESLVHSNRNTYLHWYLQKPGQSPQLLIYKVSNRFSGVPDRFSGSGSGTDFTLKISRVEAEDVGVYYCSQNTHVPPTFGQGTKVEIERTVAAPSVFIFPPSDEQLKSGTASVVCLLNNFYPREAKVQWKVDNALQSGNSQESVTEQDSKDSTYSLSSTLTLSKADYEKHKVYACEVTHQGLSSPVTKSFNRGEC | 0.68 | 140 % of control | 204 % of control |
| heterodimerized antibody GpH7-A5/GpH7-B3 variant S239_10E/GpL16-k0 (antibody, human IgG1, kappa, He Ab: anti-glypican-3 IgG1, alteration in one H chain only; also called He Ab) heavy 1: not shown heavy 2: not shown light: DIVMTQSPLSLPVTPGEPASISCQASESLVHSNRNTYLHWYLQKPGQSPQLLIYKVSNRFSGVPDRFSGSGSGTDFTLKISRVEAEDVGVYYCSQNTHVPPTFGQGTKVEIERTVAAPSVFIFPPSDEQLKSGTASVVCLLNNFYPREAKVQWKVDNALQSGNSQESVTEQDSKDSTYSLSSTLTLSKADYEKHKVYACEVTHQGLSSPVTKSFNRGEC | 0.75 | 135 % of control | 181 % of control |
| heterodimerized antibody GpH7-A5/GpH7-B3 variant P271_01G/GpL16-k0 (antibody, human IgG1, kappa, He Ab: anti-glypican-3 IgG1, alteration in one H chain only; also called He Ab) heavy 1: not shown heavy 2: not shown light: DIVMTQSPLSLPVTPGEPASISCQASESLVHSNRNTYLHWYLQKPGQSPQLLIYKVSNRFSGVPDRFSGSGSGTDFTLKISRVEAEDVGVYYCSQNTHVPPTFGQGTKVEIERTVAAPSVFIFPPSDEQLKSGTASVVCLLNNFYPREAKVQWKVDNALQSGNSQESVTEQDSKDSTYSLSSTLTLSKADYEKHKVYACEVTHQGLSSPVTKSFNRGEC | 0.75 | 144 % of control | 193 % of control |
| heterodimerized antibody GpH7-A5/GpH7-B3 variant S267_09D/GpL16-k0 (antibody, human IgG1, kappa, He Ab: anti-glypican-3 IgG1, alteration in one H chain only; also called He Ab) heavy 1: not shown heavy 2: not shown light: DIVMTQSPLSLPVTPGEPASISCQASESLVHSNRNTYLHWYLQKPGQSPQLLIYKVSNRFSGVPDRFSGSGSGTDFTLKISRVEAEDVGVYYCSQNTHVPPTFGQGTKVEIERTVAAPSVFIFPPSDEQLKSGTASVVCLLNNFYPREAKVQWKVDNALQSGNSQESVTEQDSKDSTYSLSSTLTLSKADYEKHKVYACEVTHQGLSSPVTKSFNRGEC | 0.56 | 173 % of control | 310 % of control |
| heterodimerized antibody GpH7-A5/GpH7-B3 variant P238_09D/GpL16-k0 (antibody, human IgG1, kappa, He Ab: anti-glypican-3 IgG1, alteration in one H chain only; also called He Ab) heavy 1: not shown heavy 2: not shown light: DIVMTQSPLSLPVTPGEPASISCQASESLVHSNRNTYLHWYLQKPGQSPQLLIYKVSNRFSGVPDRFSGSGSGTDFTLKISRVEAEDVGVYYCSQNTHVPPTFGQGTKVEIERTVAAPSVFIFPPSDEQLKSGTASVVCLLNNFYPREAKVQWKVDNALQSGNSQESVTEQDSKDSTYSLSSTLTLSKADYEKHKVYACEVTHQGLSSPVTKSFNRGEC | 0.67 | 148 % of control | 221 % of control |
| heterodimerized antibody GpH7-A5/GpH7-B3 variant S267_02A/GpL16-k0 (antibody, human IgG1, kappa, He Ab: anti-glypican-3 IgG1, alteration in one H chain only; also called He Ab) heavy 1: not shown heavy 2: not shown light: DIVMTQSPLSLPVTPGEPASISCQASESLVHSNRNTYLHWYLQKPGQSPQLLIYKVSNRFSGVPDRFSGSGSGTDFTLKISRVEAEDVGVYYCSQNTHVPPTFGQGTKVEIERTVAAPSVFIFPPSDEQLKSGTASVVCLLNNFYPREAKVQWKVDNALQSGNSQESVTEQDSKDSTYSLSSTLTLSKADYEKHKVYACEVTHQGLSSPVTKSFNRGEC | 0.64 | 155 % of control | 243 % of control |
| heterodimerized antibody GpH7-A5/GpH7-B3 variant S267_10E/GpL16-k0 (antibody, human IgG1, kappa, He Ab: anti-glypican-3 IgG1, alteration in one H chain only; also called He Ab) heavy 1: not shown heavy 2: not shown light: DIVMTQSPLSLPVTPGEPASISCQASESLVHSNRNTYLHWYLQKPGQSPQLLIYKVSNRFSGVPDRFSGSGSGTDFTLKISRVEAEDVGVYYCSQNTHVPPTFGQGTKVEIERTVAAPSVFIFPPSDEQLKSGTASVVCLLNNFYPREAKVQWKVDNALQSGNSQESVTEQDSKDSTYSLSSTLTLSKADYEKHKVYACEVTHQGLSSPVTKSFNRGEC | 0.46 | 175 % of control | 379 % of control |
| heterodimerized antibody GpH7-A5/GpH7-B3 variant S267_14T/GpL16-k0 (antibody, human IgG1, kappa, He Ab: anti-glypican-3 IgG1, alteration in one H chain only; also called He Ab) heavy 1: not shown heavy 2: not shown light: DIVMTQSPLSLPVTPGEPASISCQASESLVHSNRNTYLHWYLQKPGQSPQLLIYKVSNRFSGVPDRFSGSGSGTDFTLKISRVEAEDVGVYYCSQNTHVPPTFGQGTKVEIERTVAAPSVFIFPPSDEQLKSGTASVVCLLNNFYPREAKVQWKVDNALQSGNSQESVTEQDSKDSTYSLSSTLTLSKADYEKHKVYACEVTHQGLSSPVTKSFNRGEC | 0.78 | 81.9 % of control | 104 % of control |
| heterodimerized antibody GpH7-A5/GpH7-B3 variant S239_09D/GpL16-k0 (antibody, human IgG1, kappa, He Ab: anti-glypican-3 IgG1, alteration in one H chain only; also called He Ab) heavy 1: not shown heavy 2: not shown light: DIVMTQSPLSLPVTPGEPASISCQASESLVHSNRNTYLHWYLQKPGQSPQLLIYKVSNRFSGVPDRFSGSGSGTDFTLKISRVEAEDVGVYYCSQNTHVPPTFGQGTKVEIERTVAAPSVFIFPPSDEQLKSGTASVVCLLNNFYPREAKVQWKVDNALQSGNSQESVTEQDSKDSTYSLSSTLTLSKADYEKHKVYACEVTHQGLSSPVTKSFNRGEC | 0.66 | 137 % of control | 206 % of control |
| heterodimerized antibody GpH7-A5/GpH7-B3 variant P238_15Y/GpL16-k0 (antibody, human IgG1, kappa, He Ab: anti-glypican-3 IgG1, alteration in one H chain only; also called He Ab) heavy 1: not shown heavy 2: not shown light: DIVMTQSPLSLPVTPGEPASISCQASESLVHSNRNTYLHWYLQKPGQSPQLLIYKVSNRFSGVPDRFSGSGSGTDFTLKISRVEAEDVGVYYCSQNTHVPPTFGQGTKVEIERTVAAPSVFIFPPSDEQLKSGTASVVCLLNNFYPREAKVQWKVDNALQSGNSQESVTEQDSKDSTYSLSSTLTLSKADYEKHKVYACEVTHQGLSSPVTKSFNRGEC | 0.72 | 156 % of control | 218 % of control |
| heterodimerized antibody GpH7-A5/GpH7-B3 variant P238_10E/GpL16-k0 (antibody, human IgG1, kappa, He Ab: anti-glypican-3 IgG1, alteration in one H chain only; also called He Ab) heavy 1: not shown heavy 2: not shown light: DIVMTQSPLSLPVTPGEPASISCQASESLVHSNRNTYLHWYLQKPGQSPQLLIYKVSNRFSGVPDRFSGSGSGTDFTLKISRVEAEDVGVYYCSQNTHVPPTFGQGTKVEIERTVAAPSVFIFPPSDEQLKSGTASVVCLLNNFYPREAKVQWKVDNALQSGNSQESVTEQDSKDSTYSLSSTLTLSKADYEKHKVYACEVTHQGLSSPVTKSFNRGEC | 0.65 | 151 % of control | 232 % of control |
| heterodimerized antibody GpH7-A5/GpH7-B3 variant S267_04F/GpL16-k0 (antibody, human IgG1, kappa, He Ab: anti-glypican-3 IgG1, alteration in one H chain only; also called He Ab) heavy 1: not shown heavy 2: not shown light: DIVMTQSPLSLPVTPGEPASISCQASESLVHSNRNTYLHWYLQKPGQSPQLLIYKVSNRFSGVPDRFSGSGSGTDFTLKISRVEAEDVGVYYCSQNTHVPPTFGQGTKVEIERTVAAPSVFIFPPSDEQLKSGTASVVCLLNNFYPREAKVQWKVDNALQSGNSQESVTEQDSKDSTYSLSSTLTLSKADYEKHKVYACEVTHQGLSSPVTKSFNRGEC | 0.79 | 37.8 % of control | 48 % of control |
| heterodimerized antibody GpH7-A5/GpH7-B3 variant S267_06M/GpL16-k0 (antibody, human IgG1, kappa, He Ab: anti-glypican-3 IgG1, alteration in one H chain only; also called He Ab) heavy 1: not shown heavy 2: not shown light: DIVMTQSPLSLPVTPGEPASISCQASESLVHSNRNTYLHWYLQKPGQSPQLLIYKVSNRFSGVPDRFSGSGSGTDFTLKISRVEAEDVGVYYCSQNTHVPPTFGQGTKVEIERTVAAPSVFIFPPSDEQLKSGTASVVCLLNNFYPREAKVQWKVDNALQSGNSQESVTEQDSKDSTYSLSSTLTLSKADYEKHKVYACEVTHQGLSSPVTKSFNRGEC | 0.58 | 122 % of control | 210 % of control |
| heterodimerized antibody GpH7-A5/GpH7-B3 variant S267_07I/GpL16-k0 (antibody, human IgG1, kappa, He Ab: anti-glypican-3 IgG1, alteration in one H chain only; also called He Ab) heavy 1: not shown heavy 2: not shown light: DIVMTQSPLSLPVTPGEPASISCQASESLVHSNRNTYLHWYLQKPGQSPQLLIYKVSNRFSGVPDRFSGSGSGTDFTLKISRVEAEDVGVYYCSQNTHVPPTFGQGTKVEIERTVAAPSVFIFPPSDEQLKSGTASVVCLLNNFYPREAKVQWKVDNALQSGNSQESVTEQDSKDSTYSLSSTLTLSKADYEKHKVYACEVTHQGLSSPVTKSFNRGEC | 0.58 | 111 % of control | 192 % of control |
| heterodimerized antibody GpH7-A5/GpH7-B3 variant S267_03V/GpL16-k0 (antibody, human IgG1, kappa, He Ab: anti-glypican-3 IgG1, alteration in one H chain only; also called He Ab) heavy 1: not shown heavy 2: not shown light: DIVMTQSPLSLPVTPGEPASISCQASESLVHSNRNTYLHWYLQKPGQSPQLLIYKVSNRFSGVPDRFSGSGSGTDFTLKISRVEAEDVGVYYCSQNTHVPPTFGQGTKVEIERTVAAPSVFIFPPSDEQLKSGTASVVCLLNNFYPREAKVQWKVDNALQSGNSQESVTEQDSKDSTYSLSSTLTLSKADYEKHKVYACEVTHQGLSSPVTKSFNRGEC | 0.61 | 116 % of control | 192 % of control |
